This is an account of results in patent US20210214434A1.

Assay [1] concerns the target Fc receptors on the surface of the effector cells. Kind of assay: cell-based or functional assay.
Assay [2] addresses HisTag hCD16aV receptor (R&D System) (human) (UniProt P08637). Kind of assay: BLI (Octet), HisTag hCD16aV on anti-Penta-HIS biosensors, 1/1 model; SD 4.0. (BLI is a label-free optical method that tracks binding on a fibre tip over time.)
Assay [3] has as its target CD32b (UniProt P31994). Briefly: competition assay, protocol and competitor for CD32b not described.
Assay [4] concerns the target human CD64 receptor expressed by Jurkat cells (Jurkat-CD64) (human) (UniProt P12314). Briefly: flow cytometry competition on Jurkat-CD64 cells, displacement of Rituxan-A488 (25 µg/ml).
Assay [5] has as its target biotinylated human FcRn receptor (hFcRn), immobilized on Streptavidin Biosensors (human) (UniProt P55899). Kind of assay: BLI (Octet), biotinylated hFcRn on streptavidin biosensors, pH 6, 1/1 model; SD 1.94.
Assay [6] addresses HisTag hCD16aV receptor (R&D System) (human) (UniProt P08637). Kind of assay: BLI (Octet), HisTag hCD16aV on anti-Penta-HIS biosensors, 1/1 model; SD 103.9.
Assay [7] addresses HisTag hCD32aH receptor (PX therapeutics) (human) (UniProt P12318). Briefly: BLI (Octet), HisTag hCD32aH on anti-Penta-HIS biosensors, 1/1 model; SD 114.3.
For assay [8], the target named is human FcRn receptor expressed by Jurkat cells (Jurkat-FcRn) (human) (UniProt P55899). Briefly: flow cytometry competition on Jurkat-FcRn cells, displacement of Rituxan-A488 (25 µg/ml), pH 6. (In general: Flow cytometry measures light scatter and fluorescence of single cells or particles in a stream.)
human FcRn receptor expressed by Jurkat cells (Jurkat-FcRn) (human), sequence (P55899 24-365, chain 1 of 2): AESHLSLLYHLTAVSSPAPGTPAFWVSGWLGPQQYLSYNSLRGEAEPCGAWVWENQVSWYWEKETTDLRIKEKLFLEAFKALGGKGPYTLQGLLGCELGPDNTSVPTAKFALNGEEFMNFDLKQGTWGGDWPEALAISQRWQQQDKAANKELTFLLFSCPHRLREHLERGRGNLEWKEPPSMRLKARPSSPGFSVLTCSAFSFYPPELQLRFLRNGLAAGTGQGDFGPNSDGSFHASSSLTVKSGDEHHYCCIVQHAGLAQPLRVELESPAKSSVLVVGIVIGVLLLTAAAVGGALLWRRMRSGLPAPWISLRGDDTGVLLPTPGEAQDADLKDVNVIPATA
human FcRn receptor expressed by Jurkat cells (Jurkat-FcRn) (human), sequence (P61769 21-119, chain 2 of 2, further chain): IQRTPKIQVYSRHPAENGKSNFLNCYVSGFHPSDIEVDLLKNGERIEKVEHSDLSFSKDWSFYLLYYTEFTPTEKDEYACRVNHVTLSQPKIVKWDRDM
Assay [9] concerns the target human CD64 receptor expressed by Jurkat cells (Jurkat-CD64) (human) (UniProt P12314). Kind of assay: cell-based or functional assay.
The target in assay [10] is human CD16aH receptor on transfected Jurkat cells (Jurkat-CD16aH) (human) (UniProt P08637). Briefly: flow cytometry competition on Jurkat-CD16aH cells, displacement of mAb 3G8-PE (0.5 µg/ml).
human CD16aH receptor on transfected Jurkat cells (Jurkat-CD16aH) (human), sequence (P08637 17-254): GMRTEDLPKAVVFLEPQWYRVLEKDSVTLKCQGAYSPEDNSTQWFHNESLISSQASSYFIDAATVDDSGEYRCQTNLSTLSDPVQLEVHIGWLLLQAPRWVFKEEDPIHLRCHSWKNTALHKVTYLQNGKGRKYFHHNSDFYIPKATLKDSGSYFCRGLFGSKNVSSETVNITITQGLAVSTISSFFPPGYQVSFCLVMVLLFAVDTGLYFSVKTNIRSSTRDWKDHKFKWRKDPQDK
Assay [11] deals with human CD32aH receptor on transfected HEK cells (HEK-CD32) (human) (UniProt P12318). Kind of assay: flow cytometry competition on HEK-CD32 cells, displacement of Rituxan-A488 (30 µg/ml).
human CD32aH receptor on transfected HEK cells (HEK-CD32) (human), sequence (P12318 34-317): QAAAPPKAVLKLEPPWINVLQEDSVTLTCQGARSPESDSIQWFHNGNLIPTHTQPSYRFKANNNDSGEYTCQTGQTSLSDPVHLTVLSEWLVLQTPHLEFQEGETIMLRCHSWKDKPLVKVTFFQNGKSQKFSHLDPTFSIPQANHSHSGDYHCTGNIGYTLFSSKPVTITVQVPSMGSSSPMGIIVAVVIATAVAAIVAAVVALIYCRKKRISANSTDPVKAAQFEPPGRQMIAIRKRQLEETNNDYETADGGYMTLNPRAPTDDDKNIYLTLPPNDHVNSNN
The target of assay [12] is human CD32aR receptor on transfected HEK cells (HEK-CD32) (human) (UniProt P12318). The assay is described as above.
human CD32aR receptor on transfected HEK cells (HEK-CD32) (human), sequence (P12318 34-317 H167R limits assumed): as the sequence (P12318 34-317) above, with H134R counted along it

Some results are limits rather than exact numbers.

human CD64 receptor expressed by Jurkat cells (Jurkat-CD64) (human), sequence (P12314 16-374): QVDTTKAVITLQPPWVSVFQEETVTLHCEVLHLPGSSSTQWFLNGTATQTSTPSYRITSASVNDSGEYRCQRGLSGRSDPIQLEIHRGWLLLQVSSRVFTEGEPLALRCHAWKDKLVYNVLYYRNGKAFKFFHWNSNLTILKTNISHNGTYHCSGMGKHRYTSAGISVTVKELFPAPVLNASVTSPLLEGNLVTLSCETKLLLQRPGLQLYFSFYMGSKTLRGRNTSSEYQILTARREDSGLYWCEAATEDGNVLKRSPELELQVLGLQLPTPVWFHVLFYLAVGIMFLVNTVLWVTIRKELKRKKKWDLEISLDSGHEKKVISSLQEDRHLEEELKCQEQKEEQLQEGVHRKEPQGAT
HisTag hCD16aV receptor (R&D System) (human), sequence (P08637 17-208 F176V limits assumed): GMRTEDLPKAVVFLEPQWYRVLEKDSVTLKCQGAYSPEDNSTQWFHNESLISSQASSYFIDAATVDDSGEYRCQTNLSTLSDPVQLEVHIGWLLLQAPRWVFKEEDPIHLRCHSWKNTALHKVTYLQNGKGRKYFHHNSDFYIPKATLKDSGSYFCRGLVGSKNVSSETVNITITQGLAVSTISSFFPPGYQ
HisTag hCD32aH receptor (PX therapeutics) (human), sequence (P12318 34-217 limits assumed): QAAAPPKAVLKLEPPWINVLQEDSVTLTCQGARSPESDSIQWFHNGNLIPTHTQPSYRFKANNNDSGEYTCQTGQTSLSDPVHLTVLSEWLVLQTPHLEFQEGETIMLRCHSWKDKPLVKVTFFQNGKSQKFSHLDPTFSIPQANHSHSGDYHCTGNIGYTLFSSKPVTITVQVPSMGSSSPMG
CD32b, sequence (P31994 43-310 limits assumed): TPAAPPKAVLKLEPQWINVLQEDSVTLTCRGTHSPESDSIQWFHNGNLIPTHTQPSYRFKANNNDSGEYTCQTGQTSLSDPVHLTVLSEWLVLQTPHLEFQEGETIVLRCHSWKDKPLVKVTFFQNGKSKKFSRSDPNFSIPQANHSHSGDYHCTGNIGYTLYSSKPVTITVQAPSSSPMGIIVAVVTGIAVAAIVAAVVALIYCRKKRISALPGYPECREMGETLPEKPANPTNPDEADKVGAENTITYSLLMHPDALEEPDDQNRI
biotinylated human FcRn receptor (hFcRn), immobilized on Streptavidin Biosensors (human), sequence (P55899 24-297 limits assumed, chain 1 of 2): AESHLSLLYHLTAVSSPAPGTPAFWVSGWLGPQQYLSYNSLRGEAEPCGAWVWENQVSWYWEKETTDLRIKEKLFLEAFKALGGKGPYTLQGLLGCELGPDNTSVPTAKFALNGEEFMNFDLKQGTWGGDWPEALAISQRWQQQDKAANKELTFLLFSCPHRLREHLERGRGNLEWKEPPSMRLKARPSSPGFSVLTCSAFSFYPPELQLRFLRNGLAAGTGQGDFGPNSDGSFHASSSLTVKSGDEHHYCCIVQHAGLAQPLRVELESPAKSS
biotinylated human FcRn receptor (hFcRn), immobilized on Streptavidin Biosensors (human), sequence (P61769 21-119 limits assumed, chain 2 of 2, further chain): as the sequence (P61769 21-119, chain 2 of 2, further chain) above

As to “A3A-184AY_CHO (K334N/P352S/A378V/V397M/N434Y), Fc variant produced in CHO cells (from UniProt P0DOX5 223-449)”, in assay [1], the Inhibition of the lysis of the red blood cells medited by the anti-D AD1 (IC 25%, nM) stood at 13.5 nM and the Inhibition of the lysis of the red blood cells medited by the anti-D AD1 (IC 50%, nM) turned out to be 97 nM.
In [1], “A3A-184EY_CHO (Y296W/K334N/P352S/A378V/V397M/N434Y), Fc variant produced in CHO cells (from UniProt P0DOX5 223-449)” came in with an Inhibition of the lysis of the red blood cells medited by the anti-D AD1 (IC 25%, nM) of 7.6 nM and an Inhibition of the lysis of the red blood cells medited by the anti-D AD1 (IC 50%, nM) of 56 nM.
In the same order, the values of “Fc MST-HN fragment containing the mutations M252Y/S254T/T256E/H433K/N434F, produced in HEK-293 cells (from UniProt P01857 104-330)” are 190 nM and 441 nM.
By Kd is commonly meant the free concentration of one partner at which half of the binding sites on the other are occupied at equilibrium, for simple one-to-one binding. As usually defined, the IC50 is the point on the concentration scale where inhibition reaches its midpoint. Lower therefore signals greater potency. For the substance “IVIg (intravenous immunoglobulin, polyvalent immunoglobulins from pools of human plasma donations) (antibody)”, the Kd in [2] is 654 nM; in assay [5], 34.4 nM; in assay [6] it was 339 nM; in assay [7] it was 438 nM. Also, the IC50 was 761 nM in [3]; 880 nM in [4]; 1360 nM in assay [8]; 1680 nM in assay [10]; 671 nM in assay [11]; 1310 nM in assay [12]. Further, in assay [9], the Inhibition of the secretion of IL-2 of the Jurkat cells transfected with CD64 (IC 25%, nM) was determined as 1110 nM. The substance further returned an Inhibition of the secretion of IL-2 of the Jurkat cells transfected with CD64 (IC 50%, nM) in assay [9] of less than 1950 nM. In addition, in [1], the Inhibition of the lysis of the red blood cells medited by the anti-D AD1 (IC 25%, nM) came out at 59.6 nM. This substance registered an Inhibition of the lysis of the red blood cells medited by the anti-D AD1 (IC 50%, nM) in assay [1] of 351 nM.
